Assay results as given in PMC3424535.

Target: T1, McrB-N (N-terminal DNA-binding domain of McrB) (Escherichia coli, UniProt P15005 1-161)
T1 sequence: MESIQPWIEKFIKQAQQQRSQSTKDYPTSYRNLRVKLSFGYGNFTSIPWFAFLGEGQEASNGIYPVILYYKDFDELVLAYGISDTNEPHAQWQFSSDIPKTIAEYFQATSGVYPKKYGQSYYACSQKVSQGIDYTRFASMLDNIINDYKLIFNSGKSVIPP
Experiment: pyrrolo-dC fluorescence

B1: p/m (dsDNA)
DNA 1: ATCTCTCTATTCACCGGTATTCTCTCTTTC
DNA 2: GAAAGAGAGAATACCGGTGAATAGAGAGAT
modifications: pyrrolo-dC at position 14 of strand 1; 5mC at position 14 of strand 2
B1 was tested, and the binding signal was ~4 fold increase of pyrrolo-dC fluorescence (not affinity).

B2: p/p (dsDNA)
DNA 1: B1 DNA 1
DNA 2: B1 DNA 2
modifications: pyrrolo-dC at position 14 of each strand (first C of ACCGGT)
For B2, the binding signal was 2.6 fold increase of pyrrolo-dC fluorescence (not affinity).
